{"source": "paper PMC8091058", "about": "“Distinct intramolecular interactions regulate autoinhibition of vinculin binding in αT-catenin and αE-catenin” (The Journal of Biological Chemistry, 2021)", "binders": {"B1": {"name": "vinculin D1 (aa 1–259) (domain or fragment, UniProt P12003 1-259, looked up)", "chain": "MPVFHTRTIESILEPVAQQISHLVIMHEEGEVDGKAIPDLTAPVSAVQAAVSNLVRVGKETVQTTEDQILKRDMPPAFIKVENACTKLVRAAQMLQADPYSVPARDYLIDGSRGILSGTSDLLLTFDEAEVRKIIRVCKGILEYLTVAEVVETMEDLVTYTKNLGPGMTKMAKMIDERQQELTHQEHRVMLVNSMNTVKELLPVLISAMKIFVTTKNTKSQGIEEALKNRNFTVEKMSAEINEIIRVLQLTSWDEDAWA", "notes": "vinculin D1 fragment, aa 1-259, the first 2 four-helix bundles; in pGEX-TEV; also called vinculin aa 1 to 259 (D1); vinculin N-terminus; source: E. coli BL21-Gold, purified (glutathione-agarose, TEV cleavage, Mono Q or Mono S, S200)"}}, "test_in_all_cases": "ITC; vinculin D1 injected into αT-catenin or αE-catenin fragment (or αT-catenin head–β-catenin complex) in the cell; 25 °C; 20 mM Hepes pH 8.0, 150 mM NaCl, 1 mM TCEP", "key": {"[1]": {"molecular_target": "T1, αT-catenin head (1–659)–β-catenin complex (Mus musculus, UniProt Q65CL1 1-659; Q02248 1-781)", "T1 construct": "αT-catenin, Mus musculus, head region, aa 1-659; β-catenin, Mus musculus, full length; also called αT-catenin head–β-catenin complex; source: E. coli BL21-Gold, purified; purified complex", "T1 sequence (looked up) 1": "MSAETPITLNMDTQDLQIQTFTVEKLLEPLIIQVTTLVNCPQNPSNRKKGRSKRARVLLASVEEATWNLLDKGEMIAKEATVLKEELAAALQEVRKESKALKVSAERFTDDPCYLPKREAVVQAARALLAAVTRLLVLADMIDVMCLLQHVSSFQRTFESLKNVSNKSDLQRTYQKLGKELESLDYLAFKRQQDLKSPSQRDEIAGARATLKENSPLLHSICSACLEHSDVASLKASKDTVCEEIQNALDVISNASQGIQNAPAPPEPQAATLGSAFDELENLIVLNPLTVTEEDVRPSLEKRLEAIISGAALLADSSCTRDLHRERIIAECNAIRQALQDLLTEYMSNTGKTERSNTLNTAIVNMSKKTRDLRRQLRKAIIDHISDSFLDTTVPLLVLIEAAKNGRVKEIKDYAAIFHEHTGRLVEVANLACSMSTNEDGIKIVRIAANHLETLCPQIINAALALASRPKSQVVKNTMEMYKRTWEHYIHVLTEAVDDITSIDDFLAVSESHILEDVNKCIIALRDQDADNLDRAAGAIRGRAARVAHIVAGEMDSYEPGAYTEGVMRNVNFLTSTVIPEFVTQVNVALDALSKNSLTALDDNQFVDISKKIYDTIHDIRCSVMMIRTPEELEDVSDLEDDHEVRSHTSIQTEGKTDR", "T1 sequence (looked up) 2": "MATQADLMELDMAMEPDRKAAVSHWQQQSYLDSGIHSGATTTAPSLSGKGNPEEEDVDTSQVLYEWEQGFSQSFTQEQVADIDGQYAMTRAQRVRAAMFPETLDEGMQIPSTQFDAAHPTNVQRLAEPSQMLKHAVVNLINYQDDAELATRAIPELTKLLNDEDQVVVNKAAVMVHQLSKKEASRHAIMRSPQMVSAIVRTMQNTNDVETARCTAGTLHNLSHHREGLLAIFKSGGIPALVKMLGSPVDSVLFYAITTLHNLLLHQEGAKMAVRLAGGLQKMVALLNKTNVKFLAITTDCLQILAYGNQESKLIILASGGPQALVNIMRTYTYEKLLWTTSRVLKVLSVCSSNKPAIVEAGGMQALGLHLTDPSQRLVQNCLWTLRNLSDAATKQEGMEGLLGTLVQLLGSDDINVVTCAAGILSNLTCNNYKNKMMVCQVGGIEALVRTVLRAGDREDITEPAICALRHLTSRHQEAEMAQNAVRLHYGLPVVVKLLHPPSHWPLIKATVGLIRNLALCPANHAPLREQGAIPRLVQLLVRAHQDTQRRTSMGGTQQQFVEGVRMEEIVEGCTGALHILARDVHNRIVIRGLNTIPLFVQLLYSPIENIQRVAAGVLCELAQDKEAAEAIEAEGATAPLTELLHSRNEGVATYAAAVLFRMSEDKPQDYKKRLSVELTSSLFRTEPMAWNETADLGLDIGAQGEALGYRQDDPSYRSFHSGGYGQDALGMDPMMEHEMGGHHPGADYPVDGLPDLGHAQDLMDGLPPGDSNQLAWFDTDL", "conditions": "both partners purified"}, "[2]": {"molecular_target": "T2, αT-catenin N2-M3 (aa 147–626) (Mus musculus, UniProt Q65CL1 147-626)", "T2 construct": "αT-catenin, Mus musculus, N2-M3, aa 147-626; in pGEX-TEV; also called αT-catenin N2-M3 (147–626); source: E. coli BL21-Gold, purified (glutathione-agarose, TEV cleavage, Mono Q or Mono S, S200)", "T2 sequence (looked up)": "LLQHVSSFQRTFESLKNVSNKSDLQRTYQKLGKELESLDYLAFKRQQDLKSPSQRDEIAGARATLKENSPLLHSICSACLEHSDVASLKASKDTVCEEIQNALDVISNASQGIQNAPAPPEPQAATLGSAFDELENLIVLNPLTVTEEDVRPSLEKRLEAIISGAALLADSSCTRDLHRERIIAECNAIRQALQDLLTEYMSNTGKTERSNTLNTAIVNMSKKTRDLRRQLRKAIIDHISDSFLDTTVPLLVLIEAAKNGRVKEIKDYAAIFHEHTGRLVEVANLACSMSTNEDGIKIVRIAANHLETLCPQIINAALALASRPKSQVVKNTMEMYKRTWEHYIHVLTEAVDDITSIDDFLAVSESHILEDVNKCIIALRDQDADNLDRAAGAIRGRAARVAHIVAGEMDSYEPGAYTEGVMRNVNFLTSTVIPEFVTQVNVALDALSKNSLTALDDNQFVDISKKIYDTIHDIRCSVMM", "conditions": "both partners purified"}, "[3]": {"molecular_target": "2I27–αT-catenin M1-M3 (aa 259–667)-2I27 (UniProt Q65CL1)"}}}
{"binder": "B1", "values": [{"measurement": "Kd", "setting": "[1]", "result": "2770 ± 875", "unit": "nM"}, {"measurement": "dH", "setting": "[1]", "result": "4.4 ± 0.6", "unit": "kcal/mol"}, {"measurement": "Kd", "setting": "[2]", "result": "50.2 ± 40.4", "unit": "nM"}, {"measurement": "dH", "setting": "[2]", "result": "4 ± 0.1", "unit": "kcal/mol"}, {"measurement": "Kd", "setting": "[3]", "result": 245, "unit": "nM"}, {"measurement": "dH", "setting": "[3]", "result": 4.8, "unit": "kcal/mol"}]}
